Experimental data: paper doi:10.1101/2022.12.07.519389 (bioRxiv, 2022)

Molecular target: the molecule itself
Assay: negative-stain EM + ThT fluorescence

B1: CPEB3 residues 1-217 (prion-like domain 1 construct) (domain or fragment)
chain: MQDDLLMDKSKTQPQPQQQQRQQQQPQPESSVSEAPSTPLSSETPKPEENSAVPALSPAAAPPAPNGPDKMQMESPLLPGLSFHQPPQQPPPPQEPAAPGASLSPSFGSTWSTGTTNAVEDSFFQGITPVNGTMLFQNFPHHVNPVFGGTFSPQIGLAQTQHHQQPPPPAPAPQPAQPAQPPQAQPPQQRRSPASPSQAPYAQRSAAAAYGHQPIMT
- binding result: binds
